In patent publication US20070129307A1 (UNIVERSITY OF BRITISH COLUMBIA, published 2007):

Legend:
[1] = target: T1, human MHC class I molecule HLA-A*0201 (human); test: peptide/HLA-A2 complex stability on T2 cells after peptide removal and emetine, 37 C, anti-HLA-A2 flow cytometry, normalized to CMV/HLA-A2
T1 construct: MHC class I molecule on the surface of T2 cells; also called HLA-A2; HLA-A201

[2] = target: T1, human MHC class I molecule HLA-A*0201; test: HLA-A2 stabilization on T2 cells loaded with 50 ug/ml peptide, anti-HLA-A2 (BB7.2) flow cytometry, MFI relative to CMV/A2
[3] = target: T2, murine MHC class I molecule, H-2Kd (mouse, UniProt P01887 21-119; P01902 22-368, limits assumed); test: MHC class I stabilization assay on TAP-deficient RMAS-Kd cells, anti-H-2Kd-FITC, flow cytometry (background without peptide 6.07%)
T2 construct: whole, on cells; MHC class I molecule on the surface of RMAS-Kd cells
T2 sequence (MHC heavy, looked up): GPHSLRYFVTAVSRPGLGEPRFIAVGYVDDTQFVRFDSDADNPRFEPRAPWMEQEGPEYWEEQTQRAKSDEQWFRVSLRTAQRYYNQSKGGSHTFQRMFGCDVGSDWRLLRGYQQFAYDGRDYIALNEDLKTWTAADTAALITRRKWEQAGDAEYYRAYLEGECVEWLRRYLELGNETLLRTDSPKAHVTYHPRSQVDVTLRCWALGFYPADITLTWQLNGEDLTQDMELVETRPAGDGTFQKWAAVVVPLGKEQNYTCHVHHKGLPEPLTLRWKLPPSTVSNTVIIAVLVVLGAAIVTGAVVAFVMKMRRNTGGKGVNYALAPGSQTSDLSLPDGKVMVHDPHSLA
T2 sequence (b2m, looked up): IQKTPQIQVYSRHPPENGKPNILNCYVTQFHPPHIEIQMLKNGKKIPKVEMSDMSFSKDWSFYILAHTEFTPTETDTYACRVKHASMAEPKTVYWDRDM

B1: IGRP293 (peptide)
peptide: RLLCALTSL
B1 was tested, and the “% of peptide/HLA-A2 complex dissociated in 4 hours” value [1] was about 20%.

B2: Phogrin331 (peptide)
peptide: GMAELMAGL
For B2, the “% of peptide/HLA-A2 complex dissociated in 4 hours” value [1] was about 20% and the “relative HLA-A2 surface expression (% of CMV/A2 peptide binding)” value [2] was over 80%.

B3: IGRP215 (peptide)
peptide: FLFAVGFYL
With B3 the “% of peptide/HLA-A2 complex dissociated in 4 hours” value [1] was under 5%.

B4: IA-2(180) (peptide)
peptide: LLPPLLEHL
With B4 the “relative HLA-A2 surface expression (% of CMV/A2 peptide binding)” value [2] was over 80%.

B5: IA-2(172) (peptide)
peptide: SLSPLQAEL
In the case of B5, the “% of peptide/HLA-A2 complex dissociated in 4 hours” value [1] is reported as under 5% and the “relative HLA-A2 surface expression (% of CMV/A2 peptide binding)” value [2] is reported as over 80%.

B6: TV3 (peptide)
peptide: RLLPLLALL
notes: Peptide derived from the mouse insulin protein
In the case of B6, the “% of RMAS-Kd cells staining positive for surface H-2Kd” value (from here on “% of RMAS-Kd cells staining positive”) [3] is reported as 70.1%.

B7: IGRP152 (peptide)
peptide: FLWSVFMLI
B7 was tested, and the “% of peptide/HLA-A2 complex dissociated in 4 hours” value [1] was under 5%.

B8: TUM (peptide)
peptide: KYQAVTTTL
notes: also called negative control peptide TUM
In the case of B8, the “% of RMAS-Kd cells staining positive” value [3] is reported as 66.5%.

B9: IAPP9 (peptide)
peptide: FLIVLSVAL
In the case of B9, the “% of peptide/HLA-A2 complex dissociated in 4 hours” value [1] is reported as under 5%.

B10: IA-2(482) (peptide)
peptide: SLAAGVKLL
B10 was tested, and the “relative HLA-A2 surface expression (% of CMV/A2 peptide binding)” value [2] was over 80%.

B11: IAPP5 (peptide)
peptide: KLQVFLIVL
notes: also called HTV1; HTV-1
For B11, the “% of peptide/HLA-A2 complex dissociated in 4 hours” value [1] was under 5%.

B12: Insulin2 (peptide)
peptide: ALWMRLLPL
B12 was tested, and the “% of peptide/HLA-A2 complex dissociated in 4 hours” value [1] was about 20% and the “relative HLA-A2 surface expression (% of CMV/A2 peptide binding)” value [2] was over 80%.

B13: murine IAPP precursor peptide mTV1 (peptide)
peptide: KLPAVLLIL
B13 was tested, and the “% of RMAS-Kd cells staining positive” value [3] was 64.2%.

B14: TV2 (peptide)
peptide: KYPAVLLIL
notes: Modified version of TV1 with leucine to tyrosine at position 2; also called MTV2
In the case of B14, the “% of RMAS-Kd cells staining positive” value [3] is reported as 58.5%.
